“Also recorded” adds a separate entry of the source.
Experiments:
Format in all cases: in vivo, human
[1] = tested on: patients with active rheumatoid arthritis; assay: Safety and tolerance study of IL-10 plus stable MTX in active rheumatoid arthritis
Description: (§1) A multinational, multicenter, sequentially randomized, double-blind, placebo-controlled, rising multiple-dose study of IL-10 plus methotrexate (MTX) treatment was completed in patients with active rheumatoid arthritis.
(§2) Fifty patients were to receive one of five dosing regimens of IL-10 (SC) (1 μg/kg daily, 4 μg/kg daily, 8 μg/kg three times a week [TIW], 8 μg/kg daily and 20 μg/kg TIW) or placebo for 28 days, in addition to stable dosing with MTX (Treatment Phase). The patients were followed for 8 weeks after the end of IL-10 dosing (Follow-up Phase). Patients received MTX at therapeutic doses for at least 4 months prior to study entry. The dose of MTX was 12.5-25 mg/week (oral, subcutaneous or intramuscular) and remained constant throughout the study (Screening, Treatment and Follow-up Phases).
(§3) Patients were sequentially enrolled into the study in dose cohorts starting with the lowest dose of IL-10. Safety was assessed for each dose level prior to progressing to the next higher dose. Ten patients were assessed at each of the IL-10 dose cohorts: 8 received IL-10 and 2 received placebo (4:1). There was no replacement of patients.
The primary objective was to evaluate, in a dose-escalating manner, the safety and tolerance of IL-10 (SC) therapy given daily or TIW plus MTX (oral/intramuscular/SC) over a 28 day period to patients with active rheumatoid arthritis. The secondary objectives were to evaluate the effect of IL-10 on measures of rheumatoid arthritis Disease Activity, and to determine changes in the circulating levels of soluble p55 and p75 TNF receptors and IL-1 receptor antagonist. Protocol-defined responders were defined as those patients with at least 20% ACR criteria, i.e. at least 20% improvement in number of tender joints, number of swollen joints and in at least 3 of 5 RA Disease Activity measures (i.e. subject's assessment of pain, disease activity or physical function and physician's global assessment of disease activity. […]

[2] = tested on: patients with active rheumatoid arthritis; assay: Rheumatoid arthritis Disease Activity / ACR response in the IL-10 plus MTX study
Description: as §1, §2, §3
The primary objective was to evaluate, in a dose-escalating manner, the safety and tolerance of IL-10 (SC) therapy given daily or TIW plus MTX (oral/intramuscular/SC) over a 28 day period to patients with active rheumatoid arthritis. The secondary objectives were to evaluate the effect of IL-10 on measures of rheumatoid arthritis Disease Activity, and to determine changes in the circulating levels of soluble p55 and p75 TNF receptors and IL-1 receptor antagonist. Protocol-defined responders were defined as those patients with at least 20% ACR criteria, i.e. at least 20% improvement in number of tender joints, number of swollen joints and in at least 3 of 5 RA Disease Activity measures (i.e. subject's assessment of pain, disease activity or physical function and physician's global assessment of disease activity.
Fifty patients were enrolled and sequentially randomized to receive one of the five dosing regimens of IL-10 (SC) (1 μg/kg daily, 4 μg/kg daily, 8 μg/kg TIW, 8 μg/kg daily and 20 μg/kg TIW) or placebo which formed the intent-to-treat population (ITT). Mean duration of treatment was at least 26 days for each of the treatment groups. The treatment groups were similar in demographic characteristics except for slight differences in age. Baseline characteristics of RA Disease Activity were similar for treatment groups.

[3] = tested on: TNFα, IL-1β, soluble TNF p55 and p75 receptors, IL-1 receptor antagonist; assay: Ex-vivo induced proinflammatory cytokines and circulating soluble TNF receptors / IL-1 receptor antagonist; conditions: nearly all IL-10 treatment groups compared with placebo, plus MTX
Description: as §2
The primary objective was to evaluate, in a dose-escalating manner, the safety and tolerance of IL-10 (SC) therapy given daily or TIW plus MTX (oral/intramuscular/SC) over a 28 day period to patients with active rheumatoid arthritis. The secondary objectives were to evaluate the effect of IL-10 on measures of rheumatoid arthritis Disease Activity, and to determine changes in the circulating levels of soluble p55 and p75 TNF receptors and IL-1 receptor antagonist. […]

[4] = each IL-10 dose group plus MTX versus placebo plus MTX

IL-10: a cytokine produced by T lymphocytes; protein with sequence substantially identical to mature IL-10; most preferably recombinant human IL-10
safety and tolerance ([1]; IL-10 SC 1-20 μg/kg daily or TIW for 28 days plus stable MTX 12.5-25 mg/week): generally well tolerated; also recorded: safe and well tolerated | most frequently reported adverse events ([1]; IL-10 SC for 28 days plus stable MTX): headache, injection site reaction, nausea, musculoskeletal pain, with no dose-response relationship seen | anti-dsDNA or anti IL-10 antibodies ([1]; IL-10 SC for 28 days plus stable MTX, any time during the study): No anti-dsDNA or anti IL-10 antibodies were present | effects on rheumatoid arthritis Disease Activity (conclusion) ([2]; IL-10 in combination with MTX, greatest for 8 μg/kg TIW, 8 μg/kg daily and 20 μg/kg TIW): may have beneficial effects | protocol-defined response (percentage of responders) ([2]; after 28 days of dosing versus baseline, ITT population, compared with placebo plus MTX): trend toward a greater percentage of responders | mean change from baseline for individual clinical measures of rheumatoid arthritis disease activity ([2]; after 28 days, compared with placebo plus MTX): generally showing a greater percentage of responders than in placebo group | percent of patients having a 20% improvement in disease activity (ACR 20) [2, 4]: higher for each of the IL-10 treatment groups than for the placebo group | percent of patients having a 50% improvement in disease activity (ACR 50) [2, 4]: higher for each of the IL-10 treatment groups than for the placebo group | circulating serum levels of soluble TNF p55 and TNF p75 receptors and IL-1 receptor antagonists [3]: trend towards increased circulating serum levels | production of ex-vivo induced proinflammatory cytokines (TNFα and IL-1β) [3]: trend towards decreased production

— patent publication US6544504B1, “Combined use of interleukin 10 and methotrexate for immuno-modulatory therapy” (Schering Corporation, priority 1999, dated 2003)
